Assays:
Assay in all cases: cell-based or functional assay
[1] = target: HIV-1 426c.SM (N276D) Env on Env-pseudotyped virus produced in 293s/GnTI-/- cells (Man5-enrichment) (HIV-1)
[2] = target: HIV-1 Env 426c.DM (N460D.N463D), Env-pseudotyped virus produced in 293T cells (HIV-1 clade C strain 426c)
[3] = target: CH0505TF.gly4 Env, Env-pseudotyped virus produced in 293S GnTI- cells (Man5-enriched) (HIV-1)
[4] = target: HIV-1 Env 426c.SM (N276D), Env-pseudotyped virus produced in 293T cells (HIV-1 clade C strain 426c)
[5] = target: HIV-1 Env 426c.TM (N276D.N460D.N463D), Env-pseudotyped virus produced in 293S GnTI- cells (Man5-enriched) (HIV-1 clade C strain 426c)
[6] = target: CH0505.w4.3 Env, Env-pseudotyped virus produced in 293T cells (HIV-1)
[7] = target: HIV-1 426c.DM (N460D/N463D) Env on Env-pseudotyped virus produced in 293T cells (HIV-1)
[8] = target: HIV-1 426c.TM (N276D/N460D/N463D) Env on Env-pseudotyped virus produced in 293T cells (HIV-1)
[9] = target: HIV-1 426c.DM (N460D/N463D) Env on Env-pseudotyped virus produced in 293s/GnTI-/- cells (Man5-enrichment) (HIV-1)
[10] = target: HIV-1 Env 426c.TM4 (S278R.G471S.N460D.N463D), Env-pseudotyped virus produced in 293T cells (HIV-1 clade C strain 426c)
[11] = target: CH0505TF.gly3.461 Env, Env-pseudotyped virus produced in 293T cells (HIV-1)
[12] = target: CH0505TF.G458Y Env, Env-pseudotyped virus produced in 293S GnTI- cells (Man5-enriched) (HIV-1)
[13] = target: HIV-1 clade C strain 426c Env on Env-pseudotyped virus produced in 293T cells (HIV-1)
[14] = target: CH0505TF.gly3.461 Env, Env-pseudotyped virus produced in 293S GnTI- cells (Man5-enriched) (HIV-1)
[15] = target: CH0505TF Env, Env-pseudotyped virus produced in 293S GnTI- cells (Man5-enriched) (HIV-1)
[16] = target: HIV-1 Env 426c, Env-pseudotyped virus produced in 293S GnTI- cells (Man5-enriched) (HIV-1 clade C strain 426c)
[17] = target: CH0505TF Env, Env-pseudotyped virus produced in 293T cells (HIV-1)
[18] = target: HIV-1 Env 426c.TM4 (S278R.G471S.N460D.N463D), Env-pseudotyped virus produced in 293S GnTI- cells (Man5-enriched) (HIV-1 clade C strain 426c)
[19] = target: HIV-1 Env 426c, Env-pseudotyped virus produced in 293T cells (HIV-1 clade C strain 426c)
[20] = target: HIV-1 Env 426c.DM (N460D.N463D), Env-pseudotyped virus produced in 293S GnTI- cells (Man5-enriched) (HIV-1 clade C strain 426c)
[21] = target: CH0505TF.gly3.276 Env, Env-pseudotyped virus produced in 293T cells (HIV-1)
[22] = target: CH0505TF.gly3.197 Env, Env-pseudotyped virus produced in 293S GnTI- cells (Man5-enriched) (HIV-1)
[23] = target: HIV-1 Env 426c.SM (N276D), Env-pseudotyped virus produced in 293S GnTI- cells (Man5-enriched) (HIV-1 clade C strain 426c)
[24] = target: HIV-1 426c.SM (N276D) Env on Env-pseudotyped virus produced in 293T cells (HIV-1)
[25] = target: CH0505TF.gly3.276 Env, Env-pseudotyped virus produced in 293S GnTI- cells (Man5-enriched) (HIV-1)
[26] = target: HIV-1 426c.TM (N276D/N460D/N463D) Env on Env-pseudotyped virus produced in 293s/GnTI-/- cells (Man5-enrichment) (HIV-1)
[27] = target: HIV-1 clade C strain 426c Env on Env-pseudotyped virus produced in 293s/GnTI-/- cells (Man5-enrichment) (HIV-1)
[28] = target: HIV-1 Env 426c.TM (N276D.N460D.N463D), Env-pseudotyped virus produced in 293T cells (HIV-1 clade C strain 426c)
[29] = target: CH0505TF.G458Y Env, Env-pseudotyped virus produced in 293T cells (HIV-1)
[30] = target: CH0505TF.gly4 Env, Env-pseudotyped virus produced in 293T cells (HIV-1)
[31] = target: CH0505TF.gly3.197 Env, Env-pseudotyped virus produced in 293T cells (HIV-1)

| Substance | ID50/IC50 in TZM-bl [1] | IC50 (µg/ml) in TZM-bl [2] | IC50 (µg/ml) in TZM-bl [3] | IC50 (µg/ml) in TZM-bl [4] | IC50 (µg/ml) in TZM-bl [5] | IC50 (µg/ml) in TZM-bl [6] | ID50/IC50 in TZM-bl [7] | ID50/IC50 in TZM-bl [8] | ID50/IC50 in TZM-bl [9] | IC50 (µg/ml) in TZM-bl [10] | IC50 (µg/ml) in TZM-bl [11] | IC50 (µg/ml) in TZM-bl [12] | ID50/IC50 in TZM-bl [13] | IC50 (µg/ml) in TZM-bl [14] | IC50 (µg/ml) in TZM-bl [15] | IC50 (µg/ml) in TZM-bl [16] | IC50 (µg/ml) in TZM-bl [17] | IC50 (µg/ml) in TZM-bl [18] | IC50 (µg/ml) in TZM-bl [19] | IC50 (µg/ml) in TZM-bl [20] | other results |
| --- | --- | --- | --- | --- | --- | --- | --- | --- | --- | --- | --- | --- | --- | --- | --- | --- | --- | --- | --- | --- | --- |
| 10-1074 (antibody) | 0.04 µg/mL | 0.1 µg/mL | > 25 µg/mL | 0.12 µg/mL | 0.03 µg/mL | > 25 µg/mL | 0.1 µg/mL | 0.16 µg/mL | 0.03 µg/mL | 0.06 µg/mL | > 25 µg/mL | > 25 µg/mL | 0.05 µg/mL | > 25 µg/mL | > 25 µg/mL | 0.03 µg/mL | > 25 µg/mL | 0.02 µg/mL | 0.05 µg/mL | 0.03 µg/mL | IC50 (µg/ml) in TZM-bl [21]: > 25 µg/mL; IC50 (µg/ml) in TZM-bl [22]: > 25 µg/mL; IC50 (µg/ml) in TZM-bl [23]: 0.04 µg/mL; ID50/IC50 in TZM-bl [24]: 0.12 µg/mL; IC50 (µg/ml) in TZM-bl [25]: > 25 µg/mL; ID50/IC50 in TZM-bl [26]: 0.03 µg/mL; ID50/IC50 in TZM-bl [27]: 0.03 µg/mL; IC50 (µg/ml) in TZM-bl [28]: 0.16 µg/mL; IC50 (µg/ml) in TZM-bl [29]: > 25 µg/mL; IC50 (µg/ml) in TZM-bl [30]: > 25 µg/mL; IC50 (µg/ml) in TZM-bl [31]: > 25 µg/mL |
| 2F5 (antibody) | > 25 µg/mL | > 25 µg/mL | > 25 µg/mL | > 25 µg/mL | > 25 µg/mL | > 25 µg/mL | > 25 µg/mL | > 25 µg/mL | > 25 µg/mL | > 25 µg/mL | > 25 µg/mL | > 25 µg/mL | > 25 µg/mL | > 25 µg/mL | > 25 µg/mL | > 25 µg/mL | > 25 µg/mL | > 25 µg/mL | > 25 µg/mL | > 25 µg/mL | IC50 (µg/ml) in TZM-bl [21]: > 25 µg/mL; IC50 (µg/ml) in TZM-bl [22]: > 25 µg/mL; IC50 (µg/ml) in TZM-bl [23]: > 25 µg/mL; ID50/IC50 in TZM-bl [24]: > 25 µg/mL; IC50 (µg/ml) in TZM-bl [25]: > 25 µg/mL; ID50/IC50 in TZM-bl [26]: > 25 µg/mL; ID50/IC50 in TZM-bl [27]: > 25 µg/mL; IC50 (µg/ml) in TZM-bl [28]: > 25 µg/mL; IC50 (µg/ml) in TZM-bl [29]: > 25 µg/mL; IC50 (µg/ml) in TZM-bl [30]: > 25 µg/mL; IC50 (µg/ml) in TZM-bl [31]: > 25 µg/mL |
| PG16 (antibody) | > 5 µg/mL | > 5 µg/mL | 0.02 µg/mL | > 5 µg/mL | > 5 µg/mL | 0.03 µg/mL | > 5 µg/mL | > 5 µg/mL | > 5 µg/mL | > 5 µg/mL | 0.1 µg/mL | 0.01 µg/mL | > 5 µg/mL | 0.02 µg/mL | 0.08 µg/mL | > 5 µg/mL | 0.09 µg/mL | > 5 µg/mL | > 5 µg/mL | > 5 µg/mL | IC50 (µg/ml) in TZM-bl [21]: 0.1 µg/mL; IC50 (µg/ml) in TZM-bl [22]: 0.03 µg/mL; IC50 (µg/ml) in TZM-bl [23]: > 5 µg/mL; ID50/IC50 in TZM-bl [24]: > 5 µg/mL; IC50 (µg/ml) in TZM-bl [25]: 0.02 µg/mL; ID50/IC50 in TZM-bl [26]: > 5 µg/mL; ID50/IC50 in TZM-bl [27]: > 5 µg/mL; IC50 (µg/ml) in TZM-bl [28]: > 5 µg/mL; IC50 (µg/ml) in TZM-bl [29]: 0.03 µg/mL; IC50 (µg/ml) in TZM-bl [30]: 0.1 µg/mL; IC50 (µg/ml) in TZM-bl [31]: 0.05 µg/mL |
| DH511.2_K3 (antibody) | 0.87 µg/mL | 1.5 µg/mL | 1.1 µg/mL | 0.77 µg/mL | 1.2 µg/mL | 0.02 µg/mL | 1.5 µg/mL | 1.06 µg/mL | 0.75 µg/mL | 0.56 µg/mL | 2.8 µg/mL | 1.2 µg/mL | 0.8 µg/mL | 1.6 µg/mL | 0.95 µg/mL | 0.85 µg/mL | 3.4 µg/mL | 0.56 µg/mL | 0.8 µg/mL | 0.75 µg/mL | IC50 (µg/ml) in TZM-bl [21]: 2.9 µg/mL; IC50 (µg/ml) in TZM-bl [22]: 2.5 µg/mL; IC50 (µg/ml) in TZM-bl [23]: 0.87 µg/mL; ID50/IC50 in TZM-bl [24]: 0.77 µg/mL; IC50 (µg/ml) in TZM-bl [25]: 1.7 µg/mL; ID50/IC50 in TZM-bl [26]: 1.2 µg/mL; ID50/IC50 in TZM-bl [27]: 0.85 µg/mL; IC50 (µg/ml) in TZM-bl [28]: 1.06 µg/mL; IC50 (µg/ml) in TZM-bl [29]: 0.6 µg/mL; IC50 (µg/ml) in TZM-bl [30]: 2.1 µg/mL; IC50 (µg/ml) in TZM-bl [31]: 3.1 µg/mL |

— patent US20230140293A1
